The RNAGym collection of RNA variant scans (doi:10.1093/molbev/msab373)

B1: Azoarcus group I ribozyme (parent)
chain: GUGCCUUGCGCCGGGAAACCACGCAAGGGAUGGUGUCAAAUUCGGCGAAACCUAAGCGCCCGCCCGGGCGUAUGGCAACGCCGAGCCAAGCUUCGGCGCCUGCGCCGAUGAAGGUGUAGAGACUAGACGGCACCCACCUAAGGCAAACGCUAUGGUGAAGGCAUAGUCCAGGGAGUGGCGAAAGUCACACAAACCGG

Variants of: B1
Test: reverse-splicing fitness (ratio to wild type); higher = more active; in vitro selection; Mg2+ level not given
In short: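 An in vitro group I ribozyme library with randomized positions was T7-transcribed and gel-purified. In triplicate, 10 pmol RNA in EPPS pH 7.5 was reacted with 50 pmoles of a 30-nt RNA substrate for 1 h at 37 °C across several added MgCl2 levels (1–48 mM), then stopped with EDTA. Products were reverse transcribed from a substrate-complementary primer, PCR-amplified and sequenced (HiSeq 4000). Fitness is a variant's read proportion after selection over that before, normalised to wild type.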

Variant	reverse-splicing fitness
GUGCCUUGCGCCGGGAAACCACGCAAGGGAUGGUGUCAAAUUCGGCGAAACCUAAGCGCCCGCCCGGGCGUAUGGCAACGCAGAGCCAAGCUUCGGCGCCUGCGCCGAUGAAGGUGUAGUGACUAGACGGCACCCACCUAAGGCCAACGUUAUGGUGAAGGCAUAGUCUAGGGAGGGGCGAAAGUCACACAAACCGG [C82A A120U A145C C150U C169U U176G]	0.00212
GUGCCUUGCGCCGGGAAACCACGCAAGGGAUGGUGUCAAAUUCGGCGAAACCUAAGCGCCCGCCCGGGCGUAUGGCAACGCAGAGCCAAGCUUCGGCGCCUGCGCCGAUGAAGGUGUAGUGACUAGACGGCACCCACCUAAGGCCAACGUUAUGGUGAAGGCAUAGUCUAGGGAGAGGCGAAAGUCACACAAACCGG [C82A A120U A145C C150U C169U U176A]	0.00245
GUGCCUUGCGCCGGGAAACCACGCAAGGGAUGGUGUCAAAUUCGGCGAAACCUAAGCGCCCGCCCGGGCGUAUGGCAACGCAGAGCCAAGCUUCGGCGCCUGCGCCGAUGAAGGUGUAGUGACUAGACGGCACCCACCUAAGGCCAACGGUAUGGUGAAGGCAUAGUCUAGGGAGUGGCGAAAGUCACACAAACCGG [C82A A120U A145C C150G C169U]	0.00298
GUGCCUUGCGCCGGGAAACCACGCAAGGGAUGGUGUCAAAUUCGGCGAAACCUAAGCGCCCGCCCGGGCGUAUGGCAACGCAGAGCCAAGCUUCGGCGCCUGCGCCGAUGAAGGUGUAGUGACUAGACGGCACCCACCUAAGGCCAACGUUAUGGUGAAGGCAUAGUCCAGGGAGAGGCGAAAGUCACACAAACCGG [C82A A120U A145C C150U U176A]	0.00945
GUGCCUUGCGCCGGGAAACCACGCAAGGGAUGGUGUCAAAUUCGGCGAAACCUAAGCGCCCGCCCGGGCGUAUGGCAACGCAGAGCCAAGCUUCGGCGCCUGCGCCGAUGAAGGUGUAGUGACUAGACGGCACCCACCUAAGGCCAACGUUAUGGUGAAGGCAUAGUCCAGGGAGCGGCGAAAGUCACACAAACCGG [C82A A120U A145C C150U U176C]	0.0147
GUGCCUUGCGCCGGGAAACCACGCAAGGGAUGGUGUCAAAUUCGGCGAAACCUAAGCGCCCGCCCGGGCGUAUGGCAACGCAGAGCCAAGCUUCGGCGCCUGCGCCGAUGAAGGUGUAGUGACUAGACGGCACCCACCUAAGGCCAACGUUAUGGUGAAGGCAUAGUCCAGGGAGGGGCGAAAGUCACACAAACCGG [C82A A120U A145C C150U U176G]	0.00464
GUGCCUUGCGCCGGGAAACCACGCAAGGGAUGGUGUCAAAUUCGGCGAAACCUAAGCGCCCGCCCGGGCGUAUGGCAACGCAGAGCCAAGCUUCGGCGCCUGCGCCGAUGAAGGUGUAGUGACUAGACGGCACCCACCUAAGGCCAACGGUAUGGUGAAGGCAUAGUCUAGGGAGAGGCGAAAGUCACACAAACCGG [C82A A120U A145C C150G C169U U176A]	0.00283
GUGCCUUGCGCCGGGAAACCACGCAAGGGAUGGUGUCAAAUUCGGCGAAACCUAAGCGCCCGCCCGGGCGUAUGGCAACGCAGAGCCAAGCUUCGGCGCCUGCGCCGAUGAAGGUGUAGUGACUAGACGGCACCCACCUAAGGCCAACGGUAUGGUGAAGGCAUAGUCUAGGGAGCGGCGAAAGUCACACAAACCGG [C82A A120U A145C C150G C169U U176C]	0.00254
GUGCCUUGCGCCGGGAAACCACGCAAGGGAUGGUGUCAAAUUCGGCGAAACCUAAGCGCCCGCCCGGGCGUAUGGCAACGCAGAGCCAAGCUUCGGCGCCUGCGCCGAUGAAGGUGUAGUGACUAGACGGCACCCACCUAAGGCCAACGGUAUGGUGAAGGCAUAGUCUAGGGAGGGGCGAAAGUCACACAAACCGG [C82A A120U A145C C150G C169U U176G]	0.00175
GUGCCUUGCGCCGGGAAACCACGCAAGGGAUGGUGUCAAAUUCGGCGAAACCUAAGCGCCCGCCCGGGCGUAUGGCAACGCAGAGCCAAGCUUCGGCGCCUGCGCCGAUGAAGGUGUAGUGACUAGACGGCACCCACCUAAGGCCAACGUUAUGGUGAAGGCAUAGUCCAGGGAGUGGCGAAAGUCACACAAACCGG [C82A A120U A145C C150U]	0.0294
GUGCCUUGCGCCGGGAAACCACGCAAGGGAUGGUGUCAAAUUCGGCGAAACCUAAGCGCCCGCCCGGGCGUAUGGCAACGCAGAGCCAAGCUUCGGCGCCUGCGCCGAUGAAGGUGUAGUGACUAGACGGCACCCACCUAAGGCCAACGUUAUGGUGAAGGCAUAGUCGAGGGAGAGGCGAAAGUCACACAAACCGG [C82A A120U A145C C150U C169G U176A]	0.00237
GUGCCUUGCGCCGGGAAACCACGCAAGGGAUGGUGUCAAAUUCGGCGAAACCUAAGCGCCCGCCCGGGCGUAUGGCAACGCAGAGCCAAGCUUCGGCGCCUGCGCCGAUGAAGGUGUAGUGACUAGACGGCACCCACCUAAGGCCAACGUUAUGGUGAAGGCAUAGUCGAGGGAGCGGCGAAAGUCACACAAACCGG [C82A A120U A145C C150U C169G U176C]	0.00201
GUGCCUUGCGCCGGGAAACCACGCAAGGGAUGGUGUCAAAUUCGGCGAAACCUAAGCGCCCGCCCGGGCGUAUGGCAACGCAGAGCCAAGCUUCGGCGCCUGCGCCGAUGAAGGUGUAGUGACUAGACGGCACCCACCUAAGGCCAACGUUAUGGUGAAGGCAUAGUCGAGGGAGGGGCGAAAGUCACACAAACCGG [C82A A120U A145C C150U C169G U176G]	0.00196
GUGCCUUGCGCCGGGAAACCACGCAAGGGAUGGUGUCAAAUUCGGCGAAACCUAAGCGCCCGCCCGGGCGUAUGGCAACGCAGAGCCAAGCUUCGGCGCCUGCGCCGAUGAAGGUGUAGUGACUAGACGGCACCCACCUAAGGCCAACGGUAUGGUGAAGGCAUAGUCGAGGGAGCGGCGAAAGUCACACAAACCGG [C82A A120U A145C C150G C169G U176C]	0.00192
GUGCCUUGCGCCGGGAAACCACGCAAGGGAUGGUGUCAAAUUCGGCGAAACCUAAGCGCCCGCCCGGGCGUAUGGCAACGCAGAGCCAAGCUUCGGCGCCUGCGCCGAUGAAGGUGUAGUGACUAGACGGCACCCACCUAAGGCCAACGGUAUGGUGAAGGCAUAGUCGAGGGAGGGGCGAAAGUCACACAAACCGG [C82A A120U A145C C150G C169G U176G]	0.00211
